This is an account of results in patent US20120294945A1.

Ends that are not written are not given here. HA = hyaluronic acid (HA-TBA), bound to the peptide's terminal amine

In this assay the target is Flt1-Fc (R&D systems, Minneapolis, Minn.) (UniProt P17948). The assay can be described thus: competition ELISA, VEGF165-coated plate, 500 ng/mL Flt1-Fc, conjugate at rising peptide concentration. (An ELISA detects its analyte on a solid surface through an enzyme-linked reagent.)
Chain of Flt1-Fc (R&D systems, Minneapolis, Minn.) (P17948 27-756 limits assumed): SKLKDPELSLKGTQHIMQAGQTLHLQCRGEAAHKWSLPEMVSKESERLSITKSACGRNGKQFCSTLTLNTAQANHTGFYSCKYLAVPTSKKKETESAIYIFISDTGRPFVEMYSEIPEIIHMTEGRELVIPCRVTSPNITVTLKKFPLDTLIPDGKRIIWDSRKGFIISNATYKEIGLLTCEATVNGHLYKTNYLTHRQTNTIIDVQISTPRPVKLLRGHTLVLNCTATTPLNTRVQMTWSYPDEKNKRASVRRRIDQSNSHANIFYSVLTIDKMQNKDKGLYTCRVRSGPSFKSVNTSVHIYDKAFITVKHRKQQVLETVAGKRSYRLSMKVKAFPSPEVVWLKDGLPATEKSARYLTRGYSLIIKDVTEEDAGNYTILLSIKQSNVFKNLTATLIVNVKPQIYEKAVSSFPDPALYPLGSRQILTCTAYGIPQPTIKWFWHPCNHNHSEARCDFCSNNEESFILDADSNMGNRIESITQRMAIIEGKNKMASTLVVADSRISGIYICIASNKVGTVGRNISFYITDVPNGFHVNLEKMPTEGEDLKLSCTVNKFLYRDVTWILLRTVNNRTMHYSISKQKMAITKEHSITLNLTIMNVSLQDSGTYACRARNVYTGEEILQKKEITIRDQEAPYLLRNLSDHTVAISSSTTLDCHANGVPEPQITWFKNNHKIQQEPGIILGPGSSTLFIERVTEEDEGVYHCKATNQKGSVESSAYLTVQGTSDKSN

Consider {HA}-GGNQWFI (also: 20 peptides conjugated per HA-TBA molecule) [hyaluronic acid-peptide conjugate with a lower peptide content of Preparation Example 3 (HA-GGNQWFI)], for which the inhibition of the bonding between VEGF165 and Flt1-Fc (luminescence, positive control = 100%) was 32%.
